# Test results published in patent US20120316071A1 (published 2012).
# Columns and labels:
# [1] = molecular target: T1, Recombinant Human DLL4 (delta-like protein 4) (human, UniProt Q9NR61 27-529); test: 96-well plate ECL binding assay, DLL4 immobilised, Fab in solution
# T1 construct: Bought recombinant human DLL4 (R&D Systems Cat#1506-D4/CF); also called rHuman DLL4; Delta-like 4
# [2] = molecular target: T1, Recombinant Human DLL4 (delta-like …); test: ELISA, DLL4 coated on plate, Fab in solution, absorbance at 450 nm
# Recombinant Human DLL4 [3] = molecular target: T2, Recombinant Human DLL4 (human, UniProt Q9NR61 27-524); test: ELISA on plate-coated DLL4, Fab at 20 nM (3-fold serial dilution)
# T2 construct: Bought recombinant human DLL4 (R&D Systems 1506-D4/CF); also called delta-like protein 4; rHuman DLL4
# Recombinant Human DLL4 [4] = molecular target: T2, Recombinant Human DLL4; test: ELISA on plate-coated DLL4, Fab at 0.74 nM (3-fold serial dilution)
# Recombinant Human DLL4 [5] = molecular target: T2, Recombinant Human DLL4; test: ELISA on plate-coated DLL4, Fab at 2.22 nM (3-fold serial dilution)
# Recombinant Human DLL4 [6] = molecular target: T2, Recombinant Human DLL4; test: ELISA on plate-coated DLL4, Fab at 6.67 nM (3-fold serial dilution)
# Recombinant Human DLL4 [7] = molecular target: T2, Recombinant Human DLL4; test: ECL (MSD) binding assay, Fab on immobilised recombinant human DLL4; Fab concentration not given in the table
ECL signal [1],ELISA (Avgerage signal-noise) [2],ELISA signal (Recombinant Human DLL4 [3]),ELISA signal (Recombinant Human DLL4 [4]),ELISA signal (Recombinant Human DLL4 [5]),ELISA signal (Recombinant Human DLL4 [6]),ECL signal (Recombinant Human DLL4 [7]),Binder
20600,0.163,–,–,–,–,–,"Fab VH1-46_IGHD6-6*01_IGHJ1*01 S102A/S103P/S104F/H111F & L6_IGKJ1*01 S28N/S30D/S31H N53G (Fab, V domains shown, Fab with CH1 (plasmid A, His6 and Flag tags) and kappa CL (plasmid C); also called H:APFF & L:NDH N53G) VH: QVQLVQSGAEVKKPGASVKVSCKASGYTFTSYYMHWVRQAPGQGLEWMGIINPSGGSTSYAQKFQGRVTMTRDTSTSTVYMELSSLRSEDTAVYYCAREEYAPFSAEYFQFWGQGTLVTVSS VL: EIVLTQSPATLSLSPGERATLSCRASQNVDHYLAWYQQKPGQAPRLLIYDASGRATGIPARFSGSGSGTDFTLTISSLEPEDFAVYYCQQRSNWPPWTFGQGTKVEIKR"
–,–,1.01,0.368,0.594,0.88,9010,"Fab VH1-46_IGHD6-6*01_IGHJ1*01 S102A/S103P/S104F/H111F N52L/S54T/G56H & L6_IGKJ1*01 S28N/S30D/S31H S52L/A55G (Fab, V domains shown, Fab expressed in E. coli: VH joined to CH1 from Plasmid A (His6 and Flag tags), VL joined to kappa CL from Plasmid C; also called H:APFF LTH & L:NDH LG) VH: QVQLVQSGAEVKKPGASVKVSCKASGYTFTSYYMHWVRQAPGQGLEWMGIILPTGHSTSYAQKFQGRVTMTRDTSTSTVYMELSSLRSEDTAVYYCAREEYAPFSAEYFQFWGQGTLVTVSS VL: EIVLTQSPATLSLSPGERATLSCRASQNVDHYLAWYQQKPGQAPRLLIYDALNRGTGIPARFSGSGSGTDFTLTISSLEPEDFAVYYCQQRSNWPPWTFGQGTKVEIKR"
17800,0.285,–,–,–,–,–,"Fab VH1-46_IGHD6-6*01_IGHJ1*01 S102A/S103P/S104F/H111F & L6_IGKJ1*01 S28N/S30D/S31H S52L (Fab, V domains shown, Fab made in E. coli; The rest is CH1 from plasmid A (His6 and Flag tags) and kappa CL from plasmid C; also called H:APFF & L:NDH S52L) VH: QVQLVQSGAEVKKPGASVKVSCKASGYTFTSYYMHWVRQAPGQGLEWMGIINPSGGSTSYAQKFQGRVTMTRDTSTSTVYMELSSLRSEDTAVYYCAREEYAPFSAEYFQFWGQGTLVTVSS VL: EIVLTQSPATLSLSPGERATLSCRASQNVDHYLAWYQQKPGQAPRLLIYDALNRATGIPARFSGSGSGTDFTLTISSLEPEDFAVYYCQQRSNWPPWTFGQGTKVEIKR"
–,–,0.391,0.024,0.069,0.232,1840,"Fab VH1-46_IGHD6-6*01_IGHJ1*01 S102A/S103P/S104F/H111F I51A/N52L/S54T/G56H & L6_IGKJ1*01 S28N/S30D/S31H (Fab, V domains shown, Fab expressed in E. coli: VH joined to CH1 from Plasmid A (His6 and Flag tags), VL joined to kappa CL from Plasmid C; also called H:APFF ALTH & L:NDH) VH: QVQLVQSGAEVKKPGASVKVSCKASGYTFTSYYMHWVRQAPGQGLEWMGIALPTGHSTSYAQKFQGRVTMTRDTSTSTVYMELSSLRSEDTAVYYCAREEYAPFSAEYFQFWGQGTLVTVSS VL: EIVLTQSPATLSLSPGERATLSCRASQNVDHYLAWYQQKPGQAPRLLIYDASNRATGIPARFSGSGSGTDFTLTISSLEPEDFAVYYCQQRSNWPPWTFGQGTKVEIKR"
16300,0.177,–,–,–,–,–,"Fab VH1-46_IGHD6-6*01_IGHJ1*01 S102A/S103P/S104F/H111F & L6_IGKJ1*01 S28N/S30D/S31H S52W (Fab, V domains shown, Fab with CH1 (plasmid A, His6 and Flag tags) and kappa CL (plasmid C); also called H:APFF & L:NDH S52W) VH: QVQLVQSGAEVKKPGASVKVSCKASGYTFTSYYMHWVRQAPGQGLEWMGIINPSGGSTSYAQKFQGRVTMTRDTSTSTVYMELSSLRSEDTAVYYCAREEYAPFSAEYFQFWGQGTLVTVSS VL: EIVLTQSPATLSLSPGERATLSCRASQNVDHYLAWYQQKPGQAPRLLIYDAWNRATGIPARFSGSGSGTDFTLTISSLEPEDFAVYYCQQRSNWPPWTFGQGTKVEIKR"
20100,0.23,–,–,–,–,–,"Fab VH1-46_IGHD6-6*01_IGHJ1*01 S102A/S103P/S104F/H111F & L6_IGKJ1*01 S28N/S30D/S31H N53H (Fab, V domains shown, Fab with CH1 (plasmid A, His6 and Flag tags) and kappa CL (plasmid C); also called H:APFF & L:NDH N53H) VH: QVQLVQSGAEVKKPGASVKVSCKASGYTFTSYYMHWVRQAPGQGLEWMGIINPSGGSTSYAQKFQGRVTMTRDTSTSTVYMELSSLRSEDTAVYYCAREEYAPFSAEYFQFWGQGTLVTVSS VL: EIVLTQSPATLSLSPGERATLSCRASQNVDHYLAWYQQKPGQAPRLLIYDASHRATGIPARFSGSGSGTDFTLTISSLEPEDFAVYYCQQRSNWPPWTFGQGTKVEIKR"
–,–,1.06,0.397,0.755,0.916,12200,"Fab VH1-46_IGHD6-6*01_IGHJ1*01 S102A/S103P/S104F/H111F I51V/N52L/S54T/G56H & L6_IGKJ1*01 S28N/S30D/S31H S52L/A55G (Fab, V domains shown, Fab expressed in E. coli: VH joined to CH1 from Plasmid A (His6 and Flag tags), VL joined to kappa CL from Plasmid C; also called H:APFF VLTH & L:NDH LG) VH: QVQLVQSGAEVKKPGASVKVSCKASGYTFTSYYMHWVRQAPGQGLEWMGIVLPTGHSTSYAQKFQGRVTMTRDTSTSTVYMELSSLRSEDTAVYYCAREEYAPFSAEYFQFWGQGTLVTVSS VL: EIVLTQSPATLSLSPGERATLSCRASQNVDHYLAWYQQKPGQAPRLLIYDALNRGTGIPARFSGSGSGTDFTLTISSLEPEDFAVYYCQQRSNWPPWTFGQGTKVEIKR"
19500,0.185,–,–,–,–,–,"Fab VH1-46_IGHD6-6*01_IGHJ1*01 S102A/S103P/S104F/H111F & L6_IGKJ1*01 S28N/S30D/S31H S52M (Fab, V domains shown, Fab with CH1 (plasmid A, His6 and Flag tags) and kappa CL (plasmid C); also called H:APFF & L:NDH S52M) VH: QVQLVQSGAEVKKPGASVKVSCKASGYTFTSYYMHWVRQAPGQGLEWMGIINPSGGSTSYAQKFQGRVTMTRDTSTSTVYMELSSLRSEDTAVYYCAREEYAPFSAEYFQFWGQGTLVTVSS VL: EIVLTQSPATLSLSPGERATLSCRASQNVDHYLAWYQQKPGQAPRLLIYDAMNRATGIPARFSGSGSGTDFTLTISSLEPEDFAVYYCQQRSNWPPWTFGQGTKVEIKR"
–,–,0.979,0.288,0.608,0.776,9790,"Fab VH1-46_IGHD6-6*01_IGHJ1*01 S102A/S103P/S104F/H111F I51V/N52L/S54T/G56H & L6_IGKJ1*01 S28N/S30D/S31H (Fab, V domains shown, Fab expressed in E. coli: VH joined to CH1 from Plasmid A (His6 and Flag tags), VL joined to kappa CL from Plasmid C; also called H:APFF VLTH & L:NDH) VH: QVQLVQSGAEVKKPGASVKVSCKASGYTFTSYYMHWVRQAPGQGLEWMGIVLPTGHSTSYAQKFQGRVTMTRDTSTSTVYMELSSLRSEDTAVYYCAREEYAPFSAEYFQFWGQGTLVTVSS VL: EIVLTQSPATLSLSPGERATLSCRASQNVDHYLAWYQQKPGQAPRLLIYDASNRATGIPARFSGSGSGTDFTLTISSLEPEDFAVYYCQQRSNWPPWTFGQGTKVEIKR"
17800,0.162,–,–,–,–,–,"Fab VH1-46_IGHD6-6*01_IGHJ1*01 S102A/S103P/S104F/H111F & L6_IGKJ1*01 S28N/S30D/S31H N53M (Fab, V domains shown, Fab with CH1 (plasmid A, His6 and Flag tags) and kappa CL (plasmid C); also called H:APFF & L:NDH N53M) VH: QVQLVQSGAEVKKPGASVKVSCKASGYTFTSYYMHWVRQAPGQGLEWMGIINPSGGSTSYAQKFQGRVTMTRDTSTSTVYMELSSLRSEDTAVYYCAREEYAPFSAEYFQFWGQGTLVTVSS VL: EIVLTQSPATLSLSPGERATLSCRASQNVDHYLAWYQQKPGQAPRLLIYDASMRATGIPARFSGSGSGTDFTLTISSLEPEDFAVYYCQQRSNWPPWTFGQGTKVEIKR"
–,–,0.39,0.028,0.069,0.212,1760,"Fab VH1-46_IGHD6-6*01_IGHJ1*01 S102A/S103P/S104F/H111F I51A/N52L/S54T/G56H & L6_IGKJ1*01 S28N/S30D/S31H S52L/A55G (Fab, V domains shown, Fab expressed in E. coli: VH joined to CH1 from Plasmid A (His6 and Flag tags), VL joined to kappa CL from Plasmid C; also called H:APFF ALTH & L:NDH LG) VH: QVQLVQSGAEVKKPGASVKVSCKASGYTFTSYYMHWVRQAPGQGLEWMGIALPTGHSTSYAQKFQGRVTMTRDTSTSTVYMELSSLRSEDTAVYYCAREEYAPFSAEYFQFWGQGTLVTVSS VL: EIVLTQSPATLSLSPGERATLSCRASQNVDHYLAWYQQKPGQAPRLLIYDALNRGTGIPARFSGSGSGTDFTLTISSLEPEDFAVYYCQQRSNWPPWTFGQGTKVEIKR"
–,–,0.458,0.046,0.04,0.282,3720,"Fab VH1-46_IGHD6-6*01_IGHJ1*01 S102A/S103P/S104F/H111F I51A/N52L/S54T/G56H & L6_IGKJ1*01 S28N/S30D/S31H S52L/A55S (Fab, V domains shown, Fab expressed in E. coli: VH joined to CH1 from Plasmid A (His6 and Flag tags), VL joined to kappa CL from Plasmid C; also called H:APFF ALTH & L:NDH LS) VH: QVQLVQSGAEVKKPGASVKVSCKASGYTFTSYYMHWVRQAPGQGLEWMGIALPTGHSTSYAQKFQGRVTMTRDTSTSTVYMELSSLRSEDTAVYYCAREEYAPFSAEYFQFWGQGTLVTVSS VL: EIVLTQSPATLSLSPGERATLSCRASQNVDHYLAWYQQKPGQAPRLLIYDALNRSTGIPARFSGSGSGTDFTLTISSLEPEDFAVYYCQQRSNWPPWTFGQGTKVEIKR"
20100,0.263,–,–,–,–,–,"Fab VH1-46_IGHD6-6*01_IGHJ1*01 S102A/S103P/S104F/H111F & L6_IGKJ1*01 S28N/S30D/S31H S52T (Fab, V domains shown, Fab with CH1 (plasmid A, His6 and Flag tags) and kappa CL (plasmid C); also called H:APFF & L:NDH S52T) VH: QVQLVQSGAEVKKPGASVKVSCKASGYTFTSYYMHWVRQAPGQGLEWMGIINPSGGSTSYAQKFQGRVTMTRDTSTSTVYMELSSLRSEDTAVYYCAREEYAPFSAEYFQFWGQGTLVTVSS VL: EIVLTQSPATLSLSPGERATLSCRASQNVDHYLAWYQQKPGQAPRLLIYDATNRATGIPARFSGSGSGTDFTLTISSLEPEDFAVYYCQQRSNWPPWTFGQGTKVEIKR"
